# Patent publication US20220003772A1, “METHODS OF TREATING CANCER” (priority 2018, published 2022)
# Legend:
# free sBCMA = molecular target: T1, free sBCMA (Homo sapiens, UniProt Q02223); test: Reduction of free sBCMA in serum after infusion (free sBCMA MSD immunoassay); type: in vivo; conditions: at higher dose levels
# T1 construct: the extracellular portion of the BCMA receptor is cleaved from the membrane of the plasma cell surface; from tissue; host or cells: serum of clinical study subjects
# T1 sequence (Q02223 1-54 limits assumed): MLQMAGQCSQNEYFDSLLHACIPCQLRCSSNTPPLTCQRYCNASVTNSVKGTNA
# Description: In a dose escalation clinical study, 38 subjects were treated with J6M0-MMAF (Part1). The doses ranged from 0.03 mg/kg up to 4.60 mg/kg (0.03 mg/kg, 0.06 mg/kg, 0.12 mg/kg, 0.24 mg/kg, 0.48 mg/kg, 0.96 mg/kg, 1.92 mg/kg, 2.5 mg/kg, 3.4 mg/kg, and 4.6 mg/kg). An expansion cohort of 35 subjects followed at a dose of 3.40 mg/kg (Part2). […] Levels of circulating soluble BCMA (sBCMA) were followed during these studies. Soluble BCMA was measured in serum samples collected at pre- and post-infusion of J6M0-MMAF. Immunoassays (FIG. 1) were used to determine the levels of free sBCMA (FIG. 1a) and J6M0-MMAF-bound sBCMA (FIG. 1b).
# Free sBCMA Assay Protocol (FIG. 1a) 1.1. Preparation of Anti-BCMA Antibody Coated Plates (3 μg/ml)
# 1. An appropriate volume (˜3 mL per plate) of capture coating antibody was prepared—anti-BCMA antibody (J6M0) at 3 μg/mL in DPBS.
# 2. […]
# 1. 1×MSD read buffer was prepared as follows:
# 5 mL of 4×MSD read buffer T (Meso Scale Discovery #R92TC-1) plus 15 mL of Milli-Q water.
# 3. […], of 1× read buffer was transferred into to each well of the assay plate.
# 4. The MSD assay plate was read immediately by using the MSD Sector Imager 6000 (Meso Scale Discovery).
# The binding of J6M0-MMAF to sBCMA was measured by comparing the post-infusion levels of free sBCMA measured 60 minutes after the start of infusion to those found at pre-infusion. […]
# BCMA = molecular target: T2, BCMA (Homo sapiens, UniProt Q02223); test: Dose escalation / expansion clinical study of J6M0-MMAF: response by IMWG criteria; type: in vivo; conditions: expansion cohort of 35 subjects (Part2), dose 3.40 mg/kg; 21/35; 95% CI 42.1-76.1
# T2 construct: BCMA membrane expression is present on a subset of normal late-stage B cells and is universally detected on normal and malignant plasma cells; endogenous in cells; host or cells: plasma/myeloma cells of the clinical study subjects (in vivo)
# T2 sequence (Q02223 1-184): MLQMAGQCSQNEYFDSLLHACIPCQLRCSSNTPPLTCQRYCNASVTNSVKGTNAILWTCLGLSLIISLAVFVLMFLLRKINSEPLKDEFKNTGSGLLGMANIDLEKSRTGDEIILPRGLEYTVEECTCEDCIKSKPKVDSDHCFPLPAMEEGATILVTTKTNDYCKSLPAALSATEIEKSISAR
substance,measurement,setting,value
J6M0-MMAF,binding of sBCMA by J6M0-MMAF in patients,free sBCMA,binds a large fraction of sBCMA
same,overall response rate (ORR) by IMWG criteria,BCMA,60%
